From US20050065102, “Medicinal compositions” (published 2005) come the findings set out here.

For the series, the target named is HMG-I (HMGA1a), partially purified (Homo sapiens, UniProt P17096 P17096:2-107). Put plainly: pulldown; affinity column, eluted with 1 M NaCl; identified by peptide sequencing. Conditions: tags: ammonium sulfate and DEAE fractions from hypoxic SK-N-SH. How it is done: The above fraction (III) was dialyzed twice against 5 L of 50 mM Tris-HCl buffer (pH 7.5) at 4° C. for 4 hours. Then, the resulting dialysate was applied to 5′-amino-2′-O-methyl oligo RNA (5′-[…]-3′, SEQ ID NO: 24)-coupled CNBr-activated Sepharose 4B (manufactured by Pharmacia Biotech) affinity column. The above affinity column was washed with 10 ml of the above incubation buffer and then eluted with 15 ml of the incubation buffer containing 1 M NaCl to give a fraction having a binding activity to the RNA probe of No. 5 [fraction (IV), FIG. 7 (IV)] (FIG. 9, lane 4). The result of silver staining of fraction (IV) is shown in lane 4 in FIG. 8, and the result of RNA binding assay thereof is shown in lane 4 in FIG. 9.
HMG-I (HMGA1a), partially purified, sequence (P17096 2-107, one chain of several): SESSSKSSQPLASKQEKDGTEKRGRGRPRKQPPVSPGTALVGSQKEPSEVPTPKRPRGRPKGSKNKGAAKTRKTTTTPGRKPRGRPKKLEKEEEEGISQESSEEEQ

On to AUCUUCUUGGUGGUGCUCUACAAGUACCGCUGCUACAAGGUGAGGCCCU (ssRNA, 2'-OMe all, 5'-amino) [5'-amino-2'-O-methyl oligo RNA affinity ligand], for which the binding result is recorded as “binds”.
